The conditions of this data set: Homo sapiens, Thermal, DSC, reversible: yes, whole UniProt chain shown.

What is called Tm is the temperature at the midpoint of the melting transition.

B1: Lysozyme C wild type, P61626 (protein)
chain: MKALIVLGLVLLSVTVQGKVFERCELARTLKRLGMDGYRGISLANWMCLAKWESGYNTRATNYNAGDRSTDYGIFQINSRYWCNDGKTPGAVNACHLSCSALLQDNIADAVACAKRVVRDPQGIRAWVAWRNRCQNRDVRQYVQGCGV
Turning to B1, the Tm by setting is: (pH 2.2, glycine hydrochloride 0.05 M) 57.5 °C; (pH 2.3, glycine hydrochloride 0.05 M, KCl 0.2 M) 56.2 °C; (pH 4, sodium acetate 0.02 M) 80.1 °C; (pH 4.5, sodium acetate 0.02 M, KCl 0.2 M) 77.7 °C.

For the origin of these results see FireProtDB (doi:10.1021/bi000849s).
